Results on three molecules are retold here after patent US9828641B2, “Systemic genotoxicity as blood marker for allergic inflammation” (The Regents of the University of California, priority 2013, dated 2017).

“Also recorded” adds a separate entry of the source. Some results are limits rather than exact numbers.

Data set [1] deals with normochromatic erythrocytes. Nature of the data set: In vivo micronucleus assay. The conditions noted are these: wildtype mice, 48 hours post-injection.
Description: Micronuclei (MN) formation was determined in peripheral blood erythrocytes to assess chromosomal instability. Similar to a previously proposed method (28), 3 μl of whole blood was spread on a microscope slide and stained in Modified Wright-Giemsa solution (Sigma-Aldrich, St. Louis, Mo.). MN were counted and scored with an Olympus Ax70 (Tokyo, Japan) at 100× following previously proposed criteria (29). At least 4000 mature erythrocytes were counted per mouse, and the frequency of MN formation was calculated as number of micronucleated erythrocytes per 1000 normochromatic erythrocytes.
Micronucleus formation was determined in normochromatic erythrocytes as micronucleated normochromatic erythrocytes per 1000 normochromatic erythrocytes as described previously (1, 8).
Mouse TNF-α (Sigma) and/or mouse IL-1β (Sigma) were injected via the tail vein at 500 ng/mouse and 100 ng/mouse, respectively, dissolved in saline. Control animals received vehicle only. Peripheral blood was collected at 1 hr, 2 hrs, 4 hrs, and 24 hrs after injection for genotoxicity assays.
Data set [2] has as its system peripheral leukocytes. Nature of the data set: Alkaline comet assay with and without hOgg1 incubation. Type of data set: in vivo. The conditions noted are these: wildtype mice, single tail vein injection; for Time of maximum DNA damage to peripheral leukocytes: TNF-α 500 ng or IL-β 100 ng alone; for Time to repair of DNA damage in peripheral leukocytes: TNF-α 500 ng/mouse or IL-β 100 ng/mouse alone. As for the experimental part:
Frozen blood was further diluted 1:15 in PBS before further preparation.
The enzyme hOgg1-modified comet assay was used for determination of oxidative DNA damage (25). Following lysis, samples were washed in an enzyme wash buffer (40 mM HEPES, 0.1M KCl, 0.5 mM EDTA, 0.2 mg/ml BSA, pH 8.0) then incubated at 37° C. for 10 min in either control (buffer with no hOGG1) or enzyme treated (buffer with hOGG1) solutions according to the manufacturer's recommendations. (New England Biolabs, Ipswich, Mass.). Both control and enzyme treated gels were then placed in electrophoresis buffer and processed identically to the alkaline comet assay.
The enzyme hOgg1-modified comet assay was used and carried out identically as previously described (1).
For determination of oxidative DNA damage the enzyme hOgg1-modified comet assay was used (5). After lysis in the alkaline comet assay, samples were washed in an enzyme wash buffer (40 mM HEPES, 0.1M KCl, 0.5 mM EDTA, 0.2 mg/ml BSA, pH 8.0) then incubated at 37° C. for 10 min in either control (buffer with no hOGG1) or enzyme treated (buffer with hOGG1) solutions according to the manufacturer's recommendations (New England Biolabs, Ipswich, Mass.). Both control and enzyme treated gels were then placed in electrophoresis buffer and processed identically to the alkaline comet assay.
Control animals received vehicle only.

Data set [3] has as its system peripheral leukocytes. As to the kind of experiment: γ-H2AX immunofluorescence (DNA double strand breaks). Type of data set: in vivo, mice. The conditions noted are these: 3% DSS.
Description: Peripheral blood was incubated in Buffer EL (Qiagen, Valencia, Calif.) on ice to remove erythrocytes. Samples were then processed on coverslips essentially as described elsewhere (26). […] Coverslips were mounted with [sequence] with 4,6-diamidino-2-phenylindole (Vector Laboratories, Burlingame, Calif.). Images were captured with CytoVision® (Applied Imaging Corporation, San Jose, Calif.) connected to a Zeiss Axioplan 2 microscope. At least 125 cells were counted and cells with more than four distinct foci in the nucleus were considered positive for γ-H2AX (26). Apoptotic cells, which are distinguishable due to presence of 10-fold the number of nuclear foci in damaged cells (27), were not included in analyses.
Peripheral blood and splenocytes were incubated in Buffer EL (Qiagen, Valencia, Calif.) on ice to remove erythrocytes. […] Samples were then processed on coverslips as described elsewhere (6). Briefly, after permeabilization and blocking, cells were incubated with mouse anti-phospho-Histone H2A.X S139(P) (Upstate, Temecula, Calif.) at 1:400 followed by FITC-conjugated anti-mouse IgG (Jackson ImmunoResearch, West Grove, Pa.) at 1:200. Coverslips were mounted with [sequence] with 4,6-diamidino-2-phenylindole (Vector Laboratories, Burlingame, Calif.). […] At least 125 cells were counted and cells with more than four distinct foci in the nucleus were considered positive (6). […]
In data set [4] the test system is TNF-α, MCP-1, IFN-γ, TGF-β transcripts. As to the kind of experiment: Quantitative real-time PCR of cytokines in peripheral blood. Type of data set: in vivo, mice. The conditions noted are these: 3% DSS, particularly after the first cycle. As for the experimental part: Total RNA was isolated using QiaAmp RNA Blood Mini Kit (Qiagen) according to manufacturer's instructions. 25 ng/μl of total RNA was used for reverse transcription using OligodT (Invitrogen) and Superscript III Reverse Transcriptase (Invitrogen). 10 ng/μl of cDNA was used for quantitative real time PCR using Taqman Gene Expression Assays (Applied Biosystems, Foster City, Calif. p/n 4331182) for Tbp (TATA binding protein), TNF-α (tumor necrosis factor α), MCP-1 (monocyte chemoattractant protein 1, also known as CC chemokine ligand 2, CCL2), IFN-γ (interferon γ), TGF-β ([…]) and Taqman Gene Expression Master Mix according to manufacturer's instructions on the ABI Prism 7500 sequence detection system (Applied Biosystems). Tbp was chosen as the endogenous control due to its low variability and low to medium relative abundance in terms of expression in blood (30). Each measurement was performed in triplicate and results were analyzed using SDS 2.2.1 software (Applied Biosystems). Gene expression was determined using the relative standard curve method normalized to Tbp expression.
For orientation: Real-time PCR tracks product formation cycle by cycle.

The conditions of data set [5]: literature statement; cited from earlier work.

Consider TNF-α, for which the “Micronuclei formation in normochromatic erythrocytes vs before injection” value in data set [1] is “minimally yet significantly elevated”. In data set [2] (TNF-α 500 ng/mouse), the “Onset of DNA damage to peripheral leukocytes (comet and γ-H2AX)” value is recorded as 1 hour post-injection; the “Time until which DNA damage remained elevated” value is listed as “approximately 4 hours post-injection”. For the same molecule, in data set [2], the “Time of maximum DNA damage to peripheral leukocytes” value is listed as 1 hours post-injection and the “Time to repair of DNA damage in peripheral leukocytes” value is on record as no more than 24 hours post-injection.
For dextran sulfate sodium [DSS], the “Percentage of cells positive for γ-H2AX nuclear foci vs non-treated” value in data set [3] (after first 7 day acute treatment, p<0.01) is recorded as “increased dramatically”. Also, the “Percent γ-H2AX positive cells vs non-treated, chronic phase” value in data set [3] (until end of treatment, p<0.05) is “remained elevated over non-treated animals”. Further, the “Cytokine mRNA expression in peripheral blood” value in data set [4] is “up-regulation of TNF-α, MCP-1 (CCL2), and IFN-γ”. Further, the Direct mutagenicity/genotoxicity entry in data set [5] is reported as “not a mutagen nor genotoxic; also recorded: not directly genotoxic”.

B1: IL-β: Recombinant mouse IL-1β (Sigma), injected via the tail vein at 100 ng/mouse (protein, UniProt P10749 118-269, looked up)
Interleukin-1 beta: VPIRQLHYRLRDEQQKSLVLSDPYELKALHLNGQNINQQVIFSMSFVQGEPSNDKIPVALGLKGKNLYLSCVMKDGTPTLQLESVDPKQYPKKKMEKRFVFNKIEVKSKVEFESAEFPNWYISTSQAEHKPVFLGNNSGQDIIDFTMESVSS
Take B1: in data set [2], the “Time of maximum DNA damage to peripheral leukocytes” value is reported as 4 hours post-injection and the “Time to repair of DNA damage in peripheral leukocytes” value was no more than 24 hours post-injection.
